Patent publication US11142588B2, “Polypeptides which bind C-X-C chemokine receptor type 4 (CXCR4) and methods of treating or reducing the risk of fibrosis and cancer” (AdAlta Limited, priority 2015, dated 2021)
Positions count from the first letter of the chain named. Where “and” joins values, the source holds several entries; their conditions need not be identical. Equal entries are not always repeated. Blank lines part the entries; values can stand above or below the molecule they belong to.

Columns and labels:
[1] = Bleomycin mouse model of pulmonary fibrosis; type: in vivo
Source text: The optimal dose of Bleomycin is 2 U/mouse and the optimal time for assessing fibrocyte recruitment was confirmed at day 4. At days 4 bronchoalvelolar lavage (BAL) fluids were collected for analysis of SDF-1 concentration. One half of the lung tissue was used to make single cell suspensions of the lung and the cells used for flow cytometry and assayed for CD45+, CXCR4+ and Collagen1+ (fibrocytes). The other half of the lung tissue was Sircol stained for the presence of collagen 1 and RNA will be tested for Col-1, Col-3 and SDF-1.
SDF-1, fibrocytes and collagen deposition were monitored at Day 4. Groups were dosed with the i-body just prior to administration with Bleomycin. One half of the lung tissue was minced and washed in PBS and used to make single cell suspensions of the lung with Collagenase A and dispase treatment. The cells were then used for flow cytometry and assayed for CD45+, CXCR4+ and Collagen1+ fibrocytes. […]

[2] = target: CXCR4 (Homo sapiens, UniProt P61073); test: β-arrestin BRET assay, antagonist mode with 100 nM SDF-1; type: cell-based; parameters: expressed in transfected cells; host or cells: HEK293FT; details: various concentrations
CXCR4, sequence (P61073 whole entry): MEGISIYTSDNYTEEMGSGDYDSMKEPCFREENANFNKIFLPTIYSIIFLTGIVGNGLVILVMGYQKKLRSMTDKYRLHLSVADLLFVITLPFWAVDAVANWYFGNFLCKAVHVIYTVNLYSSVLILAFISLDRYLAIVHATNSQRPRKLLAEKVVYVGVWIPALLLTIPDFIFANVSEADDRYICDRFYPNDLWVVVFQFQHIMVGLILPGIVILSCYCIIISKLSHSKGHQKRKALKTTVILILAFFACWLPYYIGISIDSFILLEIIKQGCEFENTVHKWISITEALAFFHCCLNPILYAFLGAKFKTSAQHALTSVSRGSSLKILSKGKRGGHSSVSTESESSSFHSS
Source text: (FIGS. 3A-3F and 14) BRET was used in this study to assess the real-time kinetic profiles resulting from any consequent increase in proximity, building upon the previously validated monitoring of GPCR/β-arrestin interactions utilizing BRET. BRET occurs between a complementary Renilla luciferase (Rluc) variant as donor and green fluorescent protein variant as acceptor. Upon Rluc-catalyzed oxidation of the coelenterazine substrate (such as coelenterazine h for first generation BRET (BRET) or EnduRen for extended BRET (eBRET), energy is transferred to the acceptor if within 10 nm, resulting in acceptor light emission peaking at a characteristic wavelength. BRET (3-arrestin assays were carried out as described previously (See, H. B., Seeber, R. M., Kocan, M., Eidne, K. A. and Pfleger, K. D. (2011) ‘Application of G protein-coupled receptor-heteromer identification technology to monitor beta-arrestin recruitment to G protein-coupled receptor heteromers’, Assay Drug Dev Technol, 9(1), 21-30, 10.1089/adt.2010.0336). CXCR4/Rluc8 cDNA constructs were generated from plasmids containing the respective receptor cDNA tagged with Rluc kindly provided by Aron Chakera (Oxford University, United Kingdom). The β-arrestin 2/Venus cDNA construct was prepared previously from pCS2-Venus kindly provided by Atsushi Miyawaki (RIKEN Brain Science Institute, Wako-city, Japan). BRET technology in cells transiently expressing CXCR4/Rluc8 and β-arrestin2/Venus in the presence of 100 nM SDF-1 agonist was evaluated in the presence of the CXCR4 agonist SDF-1/CXCL12 and the i-bodies. HEK293FT cells were maintained at 37° C., 5% CO2 in Complete Media (Dulbecco's modified Eagle's medium containing 0.3 mg/mL glutamine, 100 IU/mL penicillin, and […] streptomycin; Gibco) supplemented with 10% fetal calf serum (FCS) and […] Geneticin (Gibco). Transfections were carried out 24 h after seeding using Genejuice (Novagen) according to manufacturer's instructions. Cells were harvested with 0.05% Trypsin-EDTA (Gibco). HEK293FT cells were transfected using FuGene6 (Promega). 5 μM coelenterazine h (Promega) in HBSS was used as the luciferase substrate solution. Cells were harvested 24 h post-transfection in HEPES-buffered phenol red-free Complete Medium containing 5% FCS and added to a poly-L-lysine-coated white 96-well plate (Nunc). Dose-response curves were generated using BRET, with medium in the plate being replaced with PBS containing […] coelenterazine h (Molecular Probes) and assays carried out immediately. For these assays, 48 h post-transfection, the plate was incubated at […], 5% CO2 for 2 h with […] EnduRen (Promega) to ensure substrate equilibrium was reached. All BRET measurements were taken at 37° C. using the VICTOR Light plate reader with Wallac 1420 software (PerkinElmer). Filtered light emissions were sequentially measured at 400-475 and 520-540 nm. The BRET signal was calculated by subtracting the ratio of 520-540 nm emission over 400-475 nm emission for a vehicle-treated cell sample from the same ratio for a second aliquot of the same cells treated with agonist (in this instance in the presence of SDF-1 or CXCL12) and i-body (ADCX-99, ADCX-272, ACDX-6, ACDX-306, ADCX-668) at various concentrations. Data are mean±S.E.M. of four independent experiments carried out in duplicate.
Binding of the i-bodies to CXCR4 were examined in a β-Arrestin BRET assay as described in See, Heng B et al (2011) Assay and Drug Development Technologies 9(1):21-30. The i-bodes were examined at ten concentrations with and without 100 nM SDF-1 with the addition of ‘vehicle’ and ‘SDF-1+vehicle’ controls in order to characterise if the i-bodies are agonist or antagonists of CXCR4 activity.

[3] = target: T1, human CXCR4 (CXCR4 positive lipoparticles) (Homo sapiens, UniProt P61073); test: Biacore SPR kinetic binding to immobilised CXCR4 lipoparticles
T1 construct: purchased Integral Molecular LEV-101B
T1 sequence (P61073 whole entry): as above
Description: (FIGS. 2A-2C, 5A-5C, 11A-11D, 17A-17B) Kinetic binding analysis of selected i-bodies with immobilized CXCR4 lipoparticles were performed at 25° C. using Biacore T200 instrument (GE Healthcare, Uppsala, Sweden). Streptavidin immobilization was performed in 1×HBS-P+ running buffer (10 mM HEPES, 150 mM NaCl, 0.05% [v/v] Tween-20). […] All binding experiments involving lipoparticles were performed with 1×HBS/BSA (10 mM HEPES, 150 mM NaCl, 1 mg/mL BSA) as instrument running buffer. […] In order to determine binding kinetics, serial dilutions (three-fold) of i-bodies diluted in 1×HBS/BSA were injected over immobilized lipoparticles with the association and dissociation phases monitored for 60 sec and 600 sec, respectively. A control measurement of the instrument running buffer (“zero-buffer” blank) solution was also included for double referencing purposes. Collected experimental data were processed using Scrubber software (www.biologic.com.au). Kinetic parameters (ka=association and kd=dissociation rate constants) and equilibrium dissociation constant (KD=kd/ka) were derived by fitting each set of experimental data to a Langmuir 1:1 binding model. All interaction measurements were performed in triplicate and the derived binding parameters reported as averaged values±standard deviation.

[4] = CXCR4 expressed on lipoparticles (Table 4)
[5] = off-rate, CXCR4 expressed on lipoparticles (Table 3)

Molecule: Cc1ccc(=O)n(-c2ccccc2)c1 [Pirfenidone, reference compound]
recruitment of fibrocytes into the lungs ([1]; day 4, dose not given): able to block recruitment of fibrocytes | collagen content of the lung (Sircol) ([1]; positive controls, dose not stated): reduction in collagen

β-arrestin activity [2]: some degree of inhibition
B1: ADCX-306: CXCR4 binding i-body, SEQ ID NO: 29 (protein)
chain: LQVDIVPSQGEISVGESKFFLCQVAGFQEWVNWFSPNGEKLTPNQQRISVVWNDDSSSTLTIYNANIDDAGIYKCVVTMPHTLNNLDVRTEATVNVKIFQ
modifications: protein sequence encoding ADCX306

β-arrestin activity [2]: some degree of inhibition
B2: ADCX-668: CXCR4 binding i-body, SEQ ID NO: 26 (protein)
chain: LQVDIVPSQGEISVGESKFFLCQVAGTIWYEQISWFTPNGEKLTPNQQRISVVWNDDSSSTLTIYNANIDDAGIYKCVVWTRPVTSSMHEATVNVKIFQ
modifications: protein sequence encoding ADCX-668

dissociation rate constant (kd) [3, 5]: 0.00784
B3: AM3-466: affinity matured CXCR4 i-body, SEQ ID NO: 64 (protein)
chain: LQVDIVPSQGEISVGESKFFLCQVAGSGSHQRISWFSPNGEKLTPNQQRISVVWNDDSSSTLTIYNANIDDAGIYKCVVWRTGAYRHRALVLGEATVNVKIFQ
modifications: protein sequence encoding AM3-466
Ka [3, 4]: 465000 M⁻¹ s⁻¹ and 426000 M⁻¹ s⁻¹

dissociation rate constant (kd) [3, 5]: 0.01621
B4: AM4-203: affinity matured i-body, CDR1 SEQ ID NO: 101, CDR3 SEQ ID NO: 102 (protein)
chain: B3 chain with G28Y, S29G, H30D, Q31I, W80Y, A84G, Y85W, A89Y

dissociation rate constant (kd) [3, 5]: 0.01562
B5: AM3-182: affinity matured i-body, CDR1 SEQ ID NO: 99, CDR3 SEQ ID NO: 100 (protein)
chain: B3 chain with S27V, S29N, Q31I, T82A, A84G

dissociation rate constant (kd) [3, 5]: 0.01356
B6: AM4-239: affinity matured i-body, CDR1 SEQ ID NO: 89, CDR3 SEQ ID NO: 90 (protein)
chain: B3 chain with S27A, G28Y, H30D, Q31I, W80Y, A84G, A89Y

dissociation rate constant (kd) [3, 5]: 0.0152
B7: AM4-352: affinity matured i-body, CDR1 SEQ ID NO: 97, CDR3 SEQ ID NO: 98 (protein)
chain: B3 chain with G28K, S29D, H30D, Q31I, W80Y, A84G, A89Y

dissociation rate constant (kd) [3, 5]: 0.01283
B8: AM4-208: affinity matured i-body, CDR1 SEQ ID NO: 85, CDR3 SEQ ID NO: 86 (protein)
chain: B3 chain with G28K, H30E, Q31I, W80Y, A84G, A89Y

dissociation rate constant (kd) [3, 5]: 0.0105
B9: AM4-774: affinity matured i-body, CDR1 SEQ ID NO: 83, CDR3 SEQ ID NO: 84 (protein)
chain: B3 chain with G28K, H30V, Q31I, W80Y, A84G, A89Y

dissociation rate constant (kd) [3, 5]: 0.00955
B10: AM4-661: affinity matured CXCR4 i-body, SEQ ID NO: 60 (protein)
chain: B3 chain with G28K, H30D, Q31F, W80Y, A84G, A89Y
modifications: protein sequence encoding AM4-661
Ka [3, 4]: 966000 M⁻¹ s⁻¹ and 983000 M⁻¹ s⁻¹ | dissociation rate constant (kd) [3, 4]: 9210 M⁻¹ s⁻¹ and 9500 M⁻¹ s⁻¹

Ka [3, 4]: 1.334e+06 M⁻¹ s⁻¹ | dissociation rate constant (kd) [3, 4]: 10440 M⁻¹ s⁻¹ | dissociation rate constant (kd) [3, 5]: 0.01236
B11: AM4-613: affinity matured CXCR4 i-body, SEQ ID NO: 52 (protein)
chain: B3 chain with G28K, H30D, Q31V, A84G, A89Y
modifications: protein sequence encoding AM4-613

dissociation rate constant (kd) [3, 5]: 0.01488
B12: AM4-757: affinity matured i-body, CDR1 SEQ ID NO: 93, CDR3 SEQ ID NO: 94 (protein)
chain: B3 chain with G28K, H30A, Q31I, W80Y, A84S, A89Y

dissociation rate constant (kd) [3, 5]: 0.0136
B13: AM3-32: affinity matured i-body, CDR1 SEQ ID NO: 91, CDR3 SEQ ID NO: 92 (protein)
chain: B3 chain with H30G, Q31I, R32T, A84V

dissociation rate constant (kd) [3, 5]: 0.015
B14: AM4-386: affinity matured i-body, CDR1 SEQ ID NO: 95, CDR3 SEQ ID NO: 96 (protein)
chain: LQVDIVPSQGEISVGESKFFLCQVAGITSEGHISWFSPNGEKLTPNQQRISVVWNDDSSSTLTIYNANIDDAGIYKCVVETTVFNEVMRLGNGAHVYEATVNVKIFQ

β-arrestin activity [2]: some degree of inhibition
B15: ADCX-6: CXCR4 binding i-body, SEQ ID NO: 17 (protein)
chain: LQVDIVPSQGEISVGESKFFLCQVAGLTSLEGISWFSPNGEKLTPNQQRISVVWNDDSSSTLTIYNANIDDAGIYKCVVEDHPQYSKMEEATVNVKIFQ
modifications: protein sequence encoding ADCX-6
